Reference: article PMC9743467 (Matter, 2022)

Molecular target: Recombinant human ACE2 protein (carrier free) (human, UniProt Q9BYF1)
Assay: zeta potential

Chain of Recombinant human ACE2 protein (carrier free) (Q9BYF1 18-740): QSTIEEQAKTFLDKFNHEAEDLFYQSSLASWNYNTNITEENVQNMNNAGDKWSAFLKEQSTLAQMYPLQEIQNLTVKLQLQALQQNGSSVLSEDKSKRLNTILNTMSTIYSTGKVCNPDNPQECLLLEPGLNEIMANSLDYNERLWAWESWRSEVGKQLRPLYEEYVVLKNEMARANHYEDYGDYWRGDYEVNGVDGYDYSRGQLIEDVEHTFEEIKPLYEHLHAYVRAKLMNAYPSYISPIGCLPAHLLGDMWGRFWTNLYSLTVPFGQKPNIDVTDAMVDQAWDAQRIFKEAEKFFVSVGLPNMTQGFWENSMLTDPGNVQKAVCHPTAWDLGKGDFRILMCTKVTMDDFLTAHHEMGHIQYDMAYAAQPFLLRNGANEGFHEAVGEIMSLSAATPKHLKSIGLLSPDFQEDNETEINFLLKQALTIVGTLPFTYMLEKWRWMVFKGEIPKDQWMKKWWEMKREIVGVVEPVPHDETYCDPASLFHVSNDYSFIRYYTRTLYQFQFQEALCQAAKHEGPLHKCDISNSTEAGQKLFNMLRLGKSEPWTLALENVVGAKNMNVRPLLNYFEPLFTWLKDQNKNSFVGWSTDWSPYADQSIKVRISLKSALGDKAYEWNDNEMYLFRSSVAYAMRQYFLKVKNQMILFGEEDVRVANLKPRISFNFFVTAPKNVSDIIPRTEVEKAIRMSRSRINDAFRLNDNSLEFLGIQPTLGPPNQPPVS

B1: ACE2-binding Ligand peptide amphiphile (C12-VVVGKK-OEG4-GG-DX600) (peptide)
peptide: VVVGKKGGGDYSHCSPLRYYPWWKCTYPDPEGGG
B1: binds.
